Earlier results, collected in article PMC3367028.

Target: CD74 (Homo sapiens) (UniProt P04233)
Test: SPR

Sequence of UniProt P04233 (P04233 73-296): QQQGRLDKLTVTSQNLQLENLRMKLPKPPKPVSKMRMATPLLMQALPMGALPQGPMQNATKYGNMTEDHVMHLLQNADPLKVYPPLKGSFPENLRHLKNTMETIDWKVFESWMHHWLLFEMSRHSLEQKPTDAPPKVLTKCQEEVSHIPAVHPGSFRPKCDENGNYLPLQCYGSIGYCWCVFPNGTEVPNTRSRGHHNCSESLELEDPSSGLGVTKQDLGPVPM

Kd: 5.42 nM
Substance: D-DT (from UniProt P30046)
